Experimental data: patent US20160272683A1 (Novo Nordisk, published 2016)
Numbered stars: 1 amine (or outer) side, 2 acyl side, 3 side chain; on linkers, the order of the positions; unused ones are H or OH. Side chains are listed from the residue outwards. Ends that are not written are not given here. * marks the point of attachment. C20 diacid = O=C(O)CCCCCCCCCCCCCCCCCCC(=O)*; C18 diacid = O=C(O)CCCCCCCCCCCCCCCCC(=O)*; γGlu = O=C(O)[C@H](CCC(=O)[*:2])N[*:1]

T1: human calcitonin receptor on BHK570/CRE-luc cells (human, UniProt P30988 25-474)
T1 sequence (looked up): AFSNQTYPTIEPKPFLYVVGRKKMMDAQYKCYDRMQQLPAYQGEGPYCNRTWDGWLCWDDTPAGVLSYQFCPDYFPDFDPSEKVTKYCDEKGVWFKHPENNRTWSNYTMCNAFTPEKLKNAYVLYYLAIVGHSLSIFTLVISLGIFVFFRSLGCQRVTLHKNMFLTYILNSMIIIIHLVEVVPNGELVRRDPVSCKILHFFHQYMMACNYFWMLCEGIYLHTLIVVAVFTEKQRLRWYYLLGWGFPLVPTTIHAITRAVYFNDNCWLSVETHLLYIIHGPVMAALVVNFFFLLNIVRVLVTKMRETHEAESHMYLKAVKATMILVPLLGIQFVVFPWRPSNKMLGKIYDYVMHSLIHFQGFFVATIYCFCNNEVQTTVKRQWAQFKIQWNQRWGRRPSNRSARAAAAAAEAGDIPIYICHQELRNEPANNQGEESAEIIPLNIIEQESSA

T2: human amylin 3(a) receptor (human calcitonin receptor co-expressed with RAMP-3) on BHK570/CRE-luc cells (human, UniProt P30988 25-474; O60896 24-148)
T2 sequence (looked up) 1: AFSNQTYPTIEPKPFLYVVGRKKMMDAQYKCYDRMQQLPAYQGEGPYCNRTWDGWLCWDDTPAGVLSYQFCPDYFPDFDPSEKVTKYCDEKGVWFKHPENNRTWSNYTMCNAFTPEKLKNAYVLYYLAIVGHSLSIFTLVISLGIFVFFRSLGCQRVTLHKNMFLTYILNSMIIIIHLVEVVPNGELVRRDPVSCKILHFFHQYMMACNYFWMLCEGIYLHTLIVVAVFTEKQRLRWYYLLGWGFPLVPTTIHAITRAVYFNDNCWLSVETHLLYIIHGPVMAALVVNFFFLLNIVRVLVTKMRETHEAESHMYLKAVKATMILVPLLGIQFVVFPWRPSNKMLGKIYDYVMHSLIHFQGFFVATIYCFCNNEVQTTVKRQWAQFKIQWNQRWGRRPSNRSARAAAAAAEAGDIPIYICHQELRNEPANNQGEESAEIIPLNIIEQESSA
T2 sequence (looked up) 2: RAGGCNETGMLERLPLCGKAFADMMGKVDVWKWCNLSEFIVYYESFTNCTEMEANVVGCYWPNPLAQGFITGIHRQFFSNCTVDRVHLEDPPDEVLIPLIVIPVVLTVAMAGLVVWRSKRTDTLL


Experiments:
[1] = molecular target: T1, human calcitonin receptor on …; experiment: cell-based or functional assay
[2] = molecular target: T2, human amylin 3(a) receptor (human …); experiment: cell-based or functional assay

| hCTR funct. EC50 (pM), tested with HSA [1] [pM] | hAmylin-R funct. EC50 (pM), tested with HSA [2] [pM] | Binder |
| --- | --- | --- |
| 92 | 128 | {C20 diacid-γGlu}-EASGLSTAALGRLSQELHELQTYPRTETGSGTY-NH2 (SMILES CC(C)C[C@H](NC(=O)CNC(=O)[C@H](CO)NC(=O)[C@H](C)NC(=O)[C@H](CCC(=O)O)NC(=O)CC[C@H](NC(=O)CCCCCCCCCCCCCCCCCCC(=O)O)C(=O)O)C(=O)N[C@@H](CO)C(=O)N[C@H](C(=O)N[C@@H](C)C(=O)N[C@@H](C)C(=O)N[C@@H](CC(C)C)C(=O)NCC(=O)N[C@@H](CCCNC(=N)N)C(=O)N[C@@H](CC(C)C)C(=O)N[C@@H](CO)C(=O)N[C@@H](CCC(N)=O)C(=O)N[C@@H](CCC(=O)O)C(=O)N[C@@H](CC(C)C)C(=O)N[C@@H](Cc1c[nH]cn1)C(=O)N[C@@H](CCC(=O)O)C(=O)N[C@@H](CC(C)C)C(=O)N[C@@H](CCC(N)=O)C(=O)N[C@H](C(=O)N[C@@H](Cc1ccc(O)cc1)C(=O)N1CCC[C@H]1C(=O)N[C@@H](CCCNC(=N)N)C(=O)N[C@H](C(=O)N[C@@H](CCC(=O)O)C(=O)N[C@H](C(=O)NCC(=O)N[C@@H](CO)C(=O)NCC(=O)N[C@H](C(=O)N[C@@H](Cc1ccc(O)cc1)C(N)=O)[C@@H](C)O)[C@@H](C)O)[C@@H](C)O)[C@@H](C)O)[C@@H](C)O) [[N-terminal(C20 diacid-gGlu), 4G, 15Q, 21Q, 23Y, 30S, 31G, 32T, 33Y]mimylin] |
| 31 | 157 | {C18 diacid-γGlu}-ASELTTAVLGRLEAELHELTTLPRTETGTGTP-NH2 [[N-terminal(C18 diacid-gGlu), des1, 6T, 9V, 14E, 21T, 30T, 31G, 32T]mimylin] |
| 108 | 143 | {C20 diacid-γGlu}-ASELSTASLGRLSAELHELSTYPRTETGSGSY-NH2 (SMILES CC(C)C[C@H](NC(=O)[C@H](CO)NC(=O)[C@H](C)NC(=O)[C@@H](NC(=O)[C@H](CO)NC(=O)[C@H](CC(C)C)NC(=O)[C@H](CCC(=O)O)NC(=O)[C@H](CO)NC(=O)[C@H](C)NC(=O)CC[C@H](NC(=O)CCCCCCCCCCCCCCCCCCC(=O)O)C(=O)O)[C@@H](C)O)C(=O)NCC(=O)N[C@@H](CCCNC(=N)N)C(=O)N[C@@H](CC(C)C)C(=O)N[C@@H](CO)C(=O)N[C@@H](C)C(=O)N[C@@H](CCC(=O)O)C(=O)N[C@@H](CC(C)C)C(=O)N[C@@H](Cc1c[nH]cn1)C(=O)N[C@@H](CCC(=O)O)C(=O)N[C@@H](CC(C)C)C(=O)N[C@@H](CO)C(=O)N[C@H](C(=O)N[C@@H](Cc1ccc(O)cc1)C(=O)N1CCC[C@H]1C(=O)N[C@@H](CCCNC(=N)N)C(=O)N[C@H](C(=O)N[C@@H](CCC(=O)O)C(=O)N[C@H](C(=O)NCC(=O)N[C@@H](CO)C(=O)NCC(=O)N[C@@H](CO)C(=O)N[C@@H](Cc1ccc(O)cc1)C(N)=O)[C@@H](C)O)[C@@H](C)O)[C@@H](C)O) [[N-terminal(C20 diacid-gGlu), des1, 9S, 21S, 23Y, 30S, 31G, 33Y]mimylin] |
| 28 | 106 | {C18 diacid-γGlu}-ASEVSTAVVGRLSAELHEVATLPRTETGSGSP-NH2 (SMILES CC(C)C[C@H](NC(=O)[C@H](CCCNC(=N)N)NC(=O)CNC(=O)[C@@H](NC(=O)[C@@H](NC(=O)[C@H](C)NC(=O)[C@@H](NC(=O)[C@H](CO)NC(=O)[C@@H](NC(=O)[C@H](CCC(=O)O)NC(=O)[C@H](CO)NC(=O)[C@H](C)NC(=O)CC[C@H](NC(=O)CCCCCCCCCCCCCCCCC(=O)O)C(=O)O)C(C)C)[C@@H](C)O)C(C)C)C(C)C)C(=O)N[C@@H](CO)C(=O)N[C@@H](C)C(=O)N[C@@H](CCC(=O)O)C(=O)N[C@@H](CC(C)C)C(=O)N[C@@H](Cc1c[nH]cn1)C(=O)N[C@@H](CCC(=O)O)C(=O)N[C@H](C(=O)N[C@@H](C)C(=O)N[C@H](C(=O)N[C@@H](CC(C)C)C(=O)N1CCC[C@H]1C(=O)N[C@@H](CCCNC(=N)N)C(=O)N[C@H](C(=O)N[C@@H](CCC(=O)O)C(=O)N[C@H](C(=O)NCC(=O)N[C@@H](CO)C(=O)NCC(=O)N[C@@H](CO)C(=O)N1CCC[C@H]1C(N)=O)[C@@H](C)O)[C@@H](C)O)[C@@H](C)O)C(C)C) [[N-terminal(C18 diacid-gGlu), des1, 5V, 9V, 10V, 20V, 30S, 31G]mimylin] |
| 113 | 335 | ASGLSTAALGRLSQELHELQTYPRTETGSK([γGlu-C20 diacid])TY-NH2 (N-terminus assumed; SMILES CC(C)C[C@H](NC(=O)CNC(=O)[C@H](CO)NC(=O)[C@H](C)N)C(=O)N[C@@H](CO)C(=O)N[C@H](C(=O)N[C@@H](C)C(=O)N[C@@H](C)C(=O)N[C@@H](CC(C)C)C(=O)NCC(=O)N[C@@H](CCCNC(=N)N)C(=O)N[C@@H](CC(C)C)C(=O)N[C@@H](CO)C(=O)N[C@@H](CCC(N)=O)C(=O)N[C@@H](CCC(=O)O)C(=O)N[C@@H](CC(C)C)C(=O)N[C@@H](Cc1c[nH]cn1)C(=O)N[C@@H](CCC(=O)O)C(=O)N[C@@H](CC(C)C)C(=O)N[C@@H](CCC(N)=O)C(=O)N[C@H](C(=O)N[C@@H](Cc1ccc(O)cc1)C(=O)N1CCC[C@H]1C(=O)N[C@@H](CCCNC(=N)N)C(=O)N[C@H](C(=O)N[C@@H](CCC(=O)O)C(=O)N[C@H](C(=O)NCC(=O)N[C@@H](CO)C(=O)N[C@@H](CCCCNC(=O)CC[C@H](NC(=O)CCCCCCCCCCCCCCCCCCC(=O)O)C(=O)O)C(=O)N[C@H](C(=O)N[C@@H](Cc1ccc(O)cc1)C(N)=O)[C@@H](C)O)[C@@H](C)O)[C@@H](C)O)[C@@H](C)O)[C@@H](C)O) [[des1, 4G, 15Q, 21Q, 23Y, 30S, 31K(C20 diacid-gGlu), 32T, 33Y]mimylin] |
| 22 | 179 | {C18 diacid-γGlu}-ASELTTAVLGRLTAELHELETLPRTETGTGTP-NH2 (SMILES CC(C)C[C@H](NC(=O)[C@H](CCC(=O)O)NC(=O)[C@H](C)NC(=O)[C@@H](NC(=O)[C@H](CC(C)C)NC(=O)[C@H](CCCNC(=N)N)NC(=O)CNC(=O)[C@H](CC(C)C)NC(=O)[C@@H](NC(=O)[C@H](C)NC(=O)[C@@H](NC(=O)[C@@H](NC(=O)[C@H](CC(C)C)NC(=O)[C@H](CCC(=O)O)NC(=O)[C@H](CO)NC(=O)[C@H](C)NC(=O)CC[C@H](NC(=O)CCCCCCCCCCCCCCCCC(=O)O)C(=O)O)[C@@H](C)O)[C@@H](C)O)C(C)C)[C@@H](C)O)C(=O)N[C@@H](Cc1c[nH]cn1)C(=O)N[C@@H](CCC(=O)O)C(=O)N[C@@H](CC(C)C)C(=O)N[C@@H](CCC(=O)O)C(=O)N[C@H](C(=O)N[C@@H](CC(C)C)C(=O)N1CCC[C@H]1C(=O)N[C@@H](CCCNC(=N)N)C(=O)N[C@H](C(=O)N[C@@H](CCC(=O)O)C(=O)N[C@H](C(=O)NCC(=O)N[C@H](C(=O)NCC(=O)N[C@H](C(=O)N1CCC[C@H]1C(N)=O)[C@@H](C)O)[C@@H](C)O)[C@@H](C)O)[C@@H](C)O)[C@@H](C)O) [[N-terminal(C18 diacid-gGlu), des1, 6T, 9V, 14T, 21E, 30T, 31G, 32T]mimylin] |
| 73 | 93 | {C20 diacid-γGlu}-ASELSTAALGKLSAELHELATYPKTETGSGSY-NH2 (SMILES CC(C)C[C@H](NC(=O)[C@H](C)NC(=O)[C@H](C)NC(=O)[C@@H](NC(=O)[C@H](CO)NC(=O)[C@H](CC(C)C)NC(=O)[C@H](CCC(=O)O)NC(=O)[C@H](CO)NC(=O)[C@H](C)NC(=O)CC[C@H](NC(=O)CCCCCCCCCCCCCCCCCCC(=O)O)C(=O)O)[C@@H](C)O)C(=O)NCC(=O)N[C@@H](CCCCN)C(=O)N[C@@H](CC(C)C)C(=O)N[C@@H](CO)C(=O)N[C@@H](C)C(=O)N[C@@H](CCC(=O)O)C(=O)N[C@@H](CC(C)C)C(=O)N[C@@H](Cc1c[nH]cn1)C(=O)N[C@@H](CCC(=O)O)C(=O)N[C@@H](CC(C)C)C(=O)N[C@@H](C)C(=O)N[C@H](C(=O)N[C@@H](Cc1ccc(O)cc1)C(=O)N1CCC[C@H]1C(=O)N[C@@H](CCCCN)C(=O)N[C@H](C(=O)N[C@@H](CCC(=O)O)C(=O)N[C@H](C(=O)NCC(=O)N[C@@H](CO)C(=O)NCC(=O)N[C@@H](CO)C(=O)N[C@@H](Cc1ccc(O)cc1)C(N)=O)[C@@H](C)O)[C@@H](C)O)[C@@H](C)O) [[N-terminal(C20 diacid-gGlu), des1, 12K, 23Y, 25K, 30S, 31G, 33Y]mimylin] |
| 53 | 122 | {C20 diacid-γGlu}-ASGLSTAVLGRLSAELHELATYPRTETGSGTY-NH2 (SMILES CC(C)C[C@H](NC(=O)CNC(=O)[C@H](CO)NC(=O)[C@H](C)NC(=O)CC[C@H](NC(=O)CCCCCCCCCCCCCCCCCCC(=O)O)C(=O)O)C(=O)N[C@@H](CO)C(=O)N[C@H](C(=O)N[C@@H](C)C(=O)N[C@H](C(=O)N[C@@H](CC(C)C)C(=O)NCC(=O)N[C@@H](CCCNC(=N)N)C(=O)N[C@@H](CC(C)C)C(=O)N[C@@H](CO)C(=O)N[C@@H](C)C(=O)N[C@@H](CCC(=O)O)C(=O)N[C@@H](CC(C)C)C(=O)N[C@@H](Cc1c[nH]cn1)C(=O)N[C@@H](CCC(=O)O)C(=O)N[C@@H](CC(C)C)C(=O)N[C@@H](C)C(=O)N[C@H](C(=O)N[C@@H](Cc1ccc(O)cc1)C(=O)N1CCC[C@H]1C(=O)N[C@@H](CCCNC(=N)N)C(=O)N[C@H](C(=O)N[C@@H](CCC(=O)O)C(=O)N[C@H](C(=O)NCC(=O)N[C@@H](CO)C(=O)NCC(=O)N[C@H](C(=O)N[C@@H](Cc1ccc(O)cc1)C(N)=O)[C@@H](C)O)[C@@H](C)O)[C@@H](C)O)[C@@H](C)O)C(C)C)[C@@H](C)O) [[N-terminal(C20 diacid-gGlu), des1, 4G, 9V, 23Y, 30S, 31G, 32T, 33Y]mimylin] |
